# Data reported in PMC10229617 (Nature Communications, 2023).
# B1: T. acidophilum 20S proteasome α-ring (α7), tag cleaved (natural protein, Thermoplasma acidophilum)
# chain: MQQGQMAYDRAITVFSPDGRLFQVEYAREAVKKGSTALGMKFANGVLLISDKKVRSRLIEQNSIEKIQLIDDYVAAVTSGLVADARVLVDFARISAQQEKVTYGSLVNIENLVKRVADQMQQYTQYGGVRPYGVSLIFAGIDQIGPRLFDCDPAGTINEYKATAIGSGKDAVVSFLEREYKENLPEKEAVTLGIKALKSSLEEGEELKAPEIASITVGNKYRIYDQEEVKKFL
# notes: proteasome subunit alpha, Thermoplasma acidophilum; source: E. coli BL21(DE3), purified (HisTrap FF, TEV cleavage), in the assembly mixture
# Target: the molecule itself
# Test: native MS; MS spectrum of the archaeal α/β assembly mixture (assembled without the 60 °C step), 150 mM ammonium acetate pH 7.5
protein,measurement,value
B1,stoichiometry N,7
